How the values were obtained:
UNC-5/HA (C. elegans) = test: LUMIER
RCM-HA (in Cos-7 cells) = RCM-HA (in Cos-7 cells) ( (mammalian), UniProt O08747 41-931); test: radioligand binding
Sequence of RCM-HA (in Cos-7 cells) (O08747 41-931): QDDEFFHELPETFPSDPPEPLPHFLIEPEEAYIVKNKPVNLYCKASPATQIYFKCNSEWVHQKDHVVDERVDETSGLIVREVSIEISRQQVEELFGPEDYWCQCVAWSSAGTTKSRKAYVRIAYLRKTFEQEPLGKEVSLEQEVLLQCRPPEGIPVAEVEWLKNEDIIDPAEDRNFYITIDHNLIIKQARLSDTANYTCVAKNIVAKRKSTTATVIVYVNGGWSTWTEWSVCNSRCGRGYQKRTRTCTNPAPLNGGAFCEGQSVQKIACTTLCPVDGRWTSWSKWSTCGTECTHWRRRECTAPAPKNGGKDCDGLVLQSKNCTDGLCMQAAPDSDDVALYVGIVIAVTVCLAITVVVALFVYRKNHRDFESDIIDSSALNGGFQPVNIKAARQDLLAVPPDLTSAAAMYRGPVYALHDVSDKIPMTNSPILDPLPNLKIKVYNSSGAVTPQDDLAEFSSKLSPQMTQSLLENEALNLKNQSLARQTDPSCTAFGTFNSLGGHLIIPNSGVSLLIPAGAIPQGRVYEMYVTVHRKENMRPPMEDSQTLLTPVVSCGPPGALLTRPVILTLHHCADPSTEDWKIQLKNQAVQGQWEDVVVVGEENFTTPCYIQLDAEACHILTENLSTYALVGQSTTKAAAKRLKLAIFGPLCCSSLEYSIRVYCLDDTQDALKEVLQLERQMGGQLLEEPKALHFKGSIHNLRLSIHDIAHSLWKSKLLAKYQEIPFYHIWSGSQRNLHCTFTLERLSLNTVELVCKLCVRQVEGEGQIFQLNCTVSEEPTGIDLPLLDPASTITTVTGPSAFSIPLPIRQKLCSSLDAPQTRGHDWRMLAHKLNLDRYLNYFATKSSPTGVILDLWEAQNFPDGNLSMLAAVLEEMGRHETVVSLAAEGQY

Sequence of UNC-5/HA (C. elegans) (Q26261 whole entry): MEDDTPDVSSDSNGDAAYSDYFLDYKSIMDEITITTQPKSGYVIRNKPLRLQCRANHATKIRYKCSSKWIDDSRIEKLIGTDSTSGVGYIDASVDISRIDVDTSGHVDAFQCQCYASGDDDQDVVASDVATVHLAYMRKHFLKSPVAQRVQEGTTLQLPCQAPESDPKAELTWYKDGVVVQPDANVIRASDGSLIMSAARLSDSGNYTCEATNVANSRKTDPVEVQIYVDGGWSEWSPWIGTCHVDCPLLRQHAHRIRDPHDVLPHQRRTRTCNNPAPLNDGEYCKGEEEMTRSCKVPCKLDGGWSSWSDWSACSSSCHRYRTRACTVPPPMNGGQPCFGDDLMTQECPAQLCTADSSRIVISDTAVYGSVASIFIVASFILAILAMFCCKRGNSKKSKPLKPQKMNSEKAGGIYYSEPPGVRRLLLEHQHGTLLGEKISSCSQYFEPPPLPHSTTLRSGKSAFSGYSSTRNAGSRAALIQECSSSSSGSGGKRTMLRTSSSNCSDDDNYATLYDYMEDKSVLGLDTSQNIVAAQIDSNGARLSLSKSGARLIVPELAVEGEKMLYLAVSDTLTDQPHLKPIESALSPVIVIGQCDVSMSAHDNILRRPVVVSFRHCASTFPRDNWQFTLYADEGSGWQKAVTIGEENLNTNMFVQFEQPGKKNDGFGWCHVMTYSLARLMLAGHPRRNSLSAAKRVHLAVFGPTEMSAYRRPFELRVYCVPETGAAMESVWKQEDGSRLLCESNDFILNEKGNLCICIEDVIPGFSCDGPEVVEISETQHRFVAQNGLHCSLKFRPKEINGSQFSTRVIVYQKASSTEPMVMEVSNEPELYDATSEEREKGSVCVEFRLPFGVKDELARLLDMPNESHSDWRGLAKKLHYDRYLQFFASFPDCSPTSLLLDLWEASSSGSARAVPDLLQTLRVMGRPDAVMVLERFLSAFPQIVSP

Question: “Gluc-UNC-129 (from UniProt G5EBY8 19-407) (ligand)” was tested. Which fold increase in luciferase activity over mock transfected cells (UNC-5/HA (C. elegans)) did it give?
Answer: Its fold increase in luciferase activity over mock transfected cells is 7 fold.

B1: 125I-BMP7 (ligand, UniProt P18075 293-431, looked up)
chain: STGSKQRSQNRSKTPKNQEALRMANVAENSSSDQRQACKKHELYVSFRDLGWQDWIIAPEGYAAYYCEGECAFPLNSYMNATNHAIVQTLVHFINPETVPKPCCAPTQLNAISVLYFDDSSNVILKKYRNMVVRACGCH
modifications: 125I label (iodinated)
Question: How did the Kd (RCM-HA (in Cos-7 cells)) turn out when B1 was run?
Answer: Its Kd is 4 nM.

Source: paper PMC2745997 (Nature neuroscience, 2009)
